Test results reported in the supplement of paper PMC9170038.

Test system: MS2 coat protein
Experiment: apparent KD of MS2 coat protein; designed switch direction (-1 OFF switch, 1 ON switch): -1; higher = weaker reporter binding
Procedure, shortened: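 Three titration conditions were used: no input, 200 uM small-molecule ligand, and an oligonucleotide input. In each, SNAP-549-labelled MS2 coat protein was raised from 0.7 or 1.5 nM, doubling, to 3 µM over designed RNA switches transcribed on Illumina chips by stalled E. coli RNA polymerase. Curve fits of normalised cluster fluorescence gave values whose per-design median over clusters is the apparent KD.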

[1] = Eterna round: R95, input ligand: microRNA oligo, concentration not stated
[2] = input ligand: microRNA oligo, concentration not stated
[3] = Eterna round: R95, input ligand: FMN 200 uM
[4] = Eterna round: R95, input ligand: none

Sequence | apparent KD of MS2 coat protein (input ligand: FMN 200 uM) | apparent KD of MS2 coat protein (input ligand: none) | apparent KD of MS2 coat protein [1] | apparent KD of MS2 coat protein [2] | apparent KD of MS2 coat protein [3] | apparent KD of MS2 coat protein [4]
ACAAGCUUUUAGAUUUUCAACAUGAGGAUCACCCAUGUUCGUCUUGUGCUAGUGCGAGUGCGGUGUACUCGUAUUAG [JL TOV1 3.82 sellena mod] (Eterna round: R97, puzzle: Sensor, turn-off variant 1) | 18.5 nM | 18.4 nM |  |  |  | 
GGUCAGCUAGGAUAUACAUGAGGAUCACCCAUGUACUGACCCAUGCGGUAGUCCGCAUGUAGAAGGAGCAAAAU [Cebiin] (Eterna round: R97, puzzle: Exclusion 3) | 11.3 nM | 18.2 nM |  |  |  | 
GCACGGUAAGUGAGGAUAUACCUCUGGAUACAGAGGUAGAAGGCACAUGAGGAUCACCCAUGUCCUAGCCGUGC [Fiskers BMX 4 - 88] (puzzle: Brourd's mod of Exclusion 4) |  |  | 32.9 nM |  |  | 
UAUUUAGCAAGCAGAUCCUACAUGAGGAUCACCCAUGUGCUCUGAAAUAACGCAGAAUUACUGCGAGCUCGUCUUAU [Winner reversed engineered 27] (Eterna round: R97, puzzle: Sensor, turn-off variant 1) | 85.7 nM | 120 nM |  |  |  | 
UACAUGAGGAUCACCCAUGUUUUGUCGUGUAUGGUAUUUAUCUAGGAUAUCAAUCUAUUUAGUUAUGAGAAGGAGAAUAUUAAU [JMF's solution 54] (Eterna round: R96, puzzle: Exclusion NG 3) | 39.1 nM | 37.8 nM |  | 29.9 nM |  | 
AUAGUAGAAGUGAGGAUAUCGUAGAUUUUAGGAAACGAGAAGGCACAUGAGGAUCACCCAUGUAAGAUGGAGGU [JR_BMOE4_Sub051] (puzzle: Brourd's mod of Exclusion 4) |  |  | 263 nM |  | 104 nM | 124 nM
GCGGGAUAGCAAGGAUAUCCCGAGUCGCAAGGAAACAUCCACAUGAGGAUCACCCAUGUGGCUCUGGAGAAGGUGCGACGCAAA [Onveceanti] (Eterna round: R96, puzzle: Exclusion NG 2) | 10.3 nM | 13.4 nM |  | 9.8 nM |  | 
GCACGGUUGCUAGGAUAUCCUUGCGAUUAGCAAGGAGAAGGAGCACAUGAGGAUCACCCAUGUACCUCAAUAAUCCAUCCGUGC [Eli exng1 - 029] (Eterna round: R96, puzzle: Exclusion NG 1) |  |  |  | 11 nM |  | 
GUCAGCUCGUGAGGAUAUACAUGCGUGCUUCGGCACGAAUUUAAGAUCACAUGAGGAUCACCCAUGUAGAAGGCACGAGCUGAC [ENG2/3-A1] (Eterna round: R96, puzzle: Exclusion NG 2) | 137 nM | 591 nM |  | 472 nM |  | 
CAGCUGAAUGUGAGGAUAUUACGAGCGAUAGCUCGUGAGAAGGCACAUGAGGAUCACCCAUGUCUCAACAGCUG [BmEx4/2-B4] (Eterna round: R97, puzzle: Brourd's mod of Exclusion 4) | 552 nM | 38.6 nM |  |  |  | 
AUAUUGUGAGGAUAUGAACUUAGUAUCGAAAGAUACUUAGUUCAGAAGGCACAUGAGGAUCACCCAUGUUUCUC [Long static hairpin v17] (Eterna round: R97, puzzle: Exclusion 4) | 883 nM | 69.8 nM |  |  |  | 
AUACCACGAGGAUAUCGUCUAUUUUACAUGAGGAUCACCCAUGUUAUCUUUGUUUUGUUUCGAGAAGGCGUGUUUU [JR_E5_Sub079] (puzzle: Exclusion 5) |  |  | 24.6 nM |  |  | 
CAAUUCCGAGGAUAUACAUGAGGAUCACCCAUGUCGGGCCUCAGCGUUUAGCGCCUAAGUAGAAGGUGGGUUUC [JL Riri mod 4] (Eterna round: R96, puzzle: Exclusion 3) | 47.1 nM | 46.6 nM |  | 31.7 nM |  | 
UUUUCACAUGAGGAUCACCCAUGUGAGGAUAUGGUUUCGCUGGCCGUAGCCAGUGGAACCAGAAGGCGCAUGAU [Mat - Exclusion 1 - JL Mod - D6] (Eterna round: R97, puzzle: Exclusion 1) | 35.3 nM | 30.2 nM |  |  |  | 
UACAUGUGAGGAUAUUAGUAGUAAAUAAAUAAAAUUAUUACUGAGAAGGUACAUGAGGAUCACCCAUGUUCCUU [Salish 062 v23] (Eterna round: R97, puzzle: Exclusion 4) | 17.5 nM | 12.7 nM |  |  |  | 
GGAUCGAAUGUCAGGAUAUGCUGGUCCUUGGAUCAGCAGAAGGGACAUGAGGAUCACCCAUGUCCUCUCGGUCC [Eli bmx4 4.52] (Eterna round: R97, puzzle: Brourd's mod of Exclusion 4) | 222 nM | 26.5 nM |  |  |  | 
CUAACAUGCUGGUGAUCAUACAUGAGGAUCACCCAUGUAACAAGCUUUUUGCUCGUCUUAAUUUAAUUGAUUACUAG [Stov1/8-A3] (Eterna round: R97, puzzle: Sensor, turn-off variant 1) | 88.9 nM | 113 nM |  |  |  | 

Sequence | apparent KD of MS2 coat protein (input ligand: FMN 200 uM) | apparent KD of MS2 coat protein (input ligand: none) | apparent KD of MS2 coat protein [1] | apparent KD of MS2 coat protein [2] | apparent KD of MS2 coat protein [3] | apparent KD of MS2 coat protein [4]
AUGUUGCGAGGAUAUAUAAGGGUAUAUUCAUAAGAUAUGGAACAUGAGGAUCACCCAUGUAGAAGGUGCAUAAC [JR_Ex2_Sub042] (Eterna round: R97, puzzle: Exclusion 2) | 200 nM | 46.2 nM |  |  |  | 
AGUAGUAGUAUCCGAUCCUACAUGAGGAUCACCCAUGUAGCUGGACGUGCACGCGAUGCUCGUCAGACUACCAGAUG [salish99_TOv1_r3_044] (puzzle: Sensor v3, turn-off variant 1) |  |  | 131 nM |  | 181 nM | 150 nM
CUGAGCAGACGGAGAUCCCACAUGAGGAUCACCCAUGUCUCAAAAGCUUUUUGCUUGUCUUAUUCUCCUCUGUUCUC [Arorza] (Eterna round: R96, puzzle: Sensor v3, turn-off variant 1) | 13.7 nM | 15.8 nM |  | 72.2 nM |  | 
GAAUACAGAGGAUAUGCGUAAUAGGUAGUAAGAUAUAUAUGACAUGAGGAUCACCCAUGUAGAAGGCUGAGAUA [EX2 #1] (Eterna round: R97, puzzle: Exclusion 2) | 26.9 nM | 30.5 nM |  |  |  | 
AGUCGGUCAGGAUAUGCAGACGUAGACAUGAGGAUCACCCAUGUAACGUGGGCCUGGUUUGUAGAAGGGACGAGCA [EX5 #84] (Eterna round: R97, puzzle: Exclusion 5) | 47.9 nM | 42.4 nM |  |  |  | 
AGCUGUGGCCGAGGAUAUCUAAAACUCAAAACCGAAAUAUAAUCGGACAUGAGGAUCACCCAUGUAGAGAAGGCGGUCUCAGCA [Eli eng2 - 078] (Eterna round: R96, puzzle: Exclusion NG 2) |  |  |  | 59.4 nM |  | 
AUGAGCAGACGGAGAUCCAACAUGAGGAUCACCCAUGUCUCAAAAGCUUUUUGCUCAUCUUAUUGUACCUUGGUGCA [Mat - Sensor v3 - turn-off var 1 - JL Mod - D17] (puzzle: Sensor v3, turn-off variant 1) |  |  | 16.5 nM |  | 172 nM | 213 nM
CCAUAUAGGCGAGGAUAUACGCACCACUAACUAGUAGAAGGCGCACAUGAGGAUCACCCAUGUGAUUUCUCAAUAUUAUACAUC [Prohibition 72 - Jieux - Exclusion NG 1] (Eterna round: R96, puzzle: Exclusion NG 1) | 174 nM | 157 nM |  | 107 nM |  | 
CCACGUCCGUACGUAUACUUGUCUCCUGAAAGAAAGGGCACAUGAGGAUCACCCAUGUUUUUGCUCGUCUUAUGAGC [JR_Sensorv2_tov2_Sub714] (Eterna round: R96, puzzle: Sensor v2, turn-off variant 2) | 20.4 nM | 22.8 nM |  | 40.9 nM |  | 
GAGCUAUGAGGAUAUGCAUAUAUACGGAUUCGUGUGGUACUACAUGAGGAUCACCCAUGUAGAAGGCGUGGCUG [JL-ex2-2.04 mat747 mod] (puzzle: Exclusion 2) |  |  | 16.2 nM |  |  | 
GGAUAUAACGUAGGAUAUGAGAGAAACAGACGAUCAGAAGGACGACAUGAGGAUCACCCAUGUGAUCUAUCAAUAUUAUACAUG [Prohibition 97 - Jieux - Exclusion NG 1] (Eterna round: R96, puzzle: Exclusion NG 1) | 446 nM | 300 nM |  | 180 nM |  | 
AGUGCUGGCGCGUCGGUGUUGGUGCAAUAAGCUUGUGAAACAUGAGGAUCACCCAUGUCCUCAUAAGCUCGUCUUAU [salish99_TOv2_r2_085] (Eterna round: R96, puzzle: Sensor v3, turn-off variant 2) | 14.9 nM | 17.9 nM |  | 375 nM |  | 
UAUUAGCAAGCGAGAUCCCACAUGAGGAUCACCCAUGUAAAAGCAUCCAGAAUUACUGGGUGCAAAGCUCGUCUUAU [Winner reversed engineered 7] (Eterna round: R97, puzzle: Sensor, turn-off variant 1) | 30.1 nM | 24.8 nM |  |  |  | 
UUAAUUAAUUGACUGCAAGAUCAACAUGAGGAUCACCCAUGUGAGGAUAUCAGCUCGUGUAGAGCUGAGAAGGCACAAGCAGUC [ExNG3/16-A3] (Eterna round: R96, puzzle: Exclusion NG 3) | 73.6 nM | 21.8 nM |  | 13.4 nM |  | 
AAACACCAAGGAUAUACAUGAGGAUCACCCAUGUGGUCCGGCACGGGUCUCGAUUCGAGUAGAAGGUGGAUGGG [Eternabot (L1) Solution 80] (Eterna round: R97, puzzle: Exclusion 3) | 56.7 nM | 76.5 nM |  |  |  | 
UGCAAUCUUAUGAUAUCUCACAUGAGGAUCACCCAUGUGCUCGUCUUAUGUUCUGUUUUGCUGUUGUCCGGCCGGCC [1st try] (Eterna round: R97, puzzle: Sensor, turn-off variant 1) | 27.5 nM | 31.3 nM |  |  |  | 
